The numbers were not newly measured in paper PMC9240770, which cites them from elsewhere.

As usually defined, the Kd is the free concentration of one partner at which half of the binding sites on the other are occupied at equilibrium, for simple one-to-one binding.

This data set addresses TREM-1 (Mus musculus) (UniProt Q9JKE2). Put plainly: SPR. Background: In SPR one partner is held on a chip, and binding of the other changes the refractive index at the surface.
UniProt Q9JKE2, sequence (Q9JKE2 21-230): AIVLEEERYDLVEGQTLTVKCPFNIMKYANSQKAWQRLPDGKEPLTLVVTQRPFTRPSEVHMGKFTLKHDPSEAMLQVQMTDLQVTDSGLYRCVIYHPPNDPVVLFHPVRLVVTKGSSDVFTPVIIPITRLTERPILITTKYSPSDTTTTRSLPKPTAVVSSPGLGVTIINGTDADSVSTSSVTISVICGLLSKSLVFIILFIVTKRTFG

Turning to CIRP (from UniProt P60824), the Kd is 0.117 µM.
As to HMGB1 (from UniProt P63158), the Kd is 35.4 µM.
